Measured values: patent publication US20230220062A1 (Eli Lilly, published 2023)
Changes are numbered by the printed parent chain.

T1: recombinant human IL-19 (human, UniProt Q9UHD0 25-177)
T1 construct: also called human IL-19 recombinant protein; interleukin-19
T1 sequence: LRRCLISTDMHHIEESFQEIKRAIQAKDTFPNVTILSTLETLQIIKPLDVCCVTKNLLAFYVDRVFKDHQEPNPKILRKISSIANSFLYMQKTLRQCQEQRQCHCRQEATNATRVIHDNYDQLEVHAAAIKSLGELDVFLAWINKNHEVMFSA

B1: murine derived IL-19 Ab 1 (M_1) (antibody, mouse IgG1, kappa, V domains shown)
VH: EVQLQQSGPVLVKPGASVKMSCKASGYKFTDYFVGWVKQSHGKSLEWIGYVDPENGYTRCNQKFKGKATLTVDKSSSTAYMELNSLTSEDSAVYYCARYDYDWAWFTNWGQGTLVTVSA
VL: DIVMTQSPSSLAMSVGQKVTMSCKSSQSLLSSYNQKNYLAWYQQKPGQSPKLLVYFASTRPPGVPDRFIGSGSGSDFTLTISSVQAEDLADYFCQQHERLPITFGAGTKLELKR
B2: murine derived IL-19 Ab 5 (M_5) (antibody, mouse IgG1, kappa, V domains shown)
VH: EVQLQQSGPVLVKPGASVKMSCKASGYPFNDYFLGWVKQSHGKSLEWIGSINPDNDYTMSNQKFKGKATLTVDKSSSTAYMELNSLTSEDSAVYYCARYDYDWAWFAHWGQGTLVTVSA
VL: B1 VL with Q44R, T59Q, P61A, P62T, E98T
B3: murine derived IL-19 Ab 2 (M_2) (antibody, mouse IgG1, kappa, V domains shown)
VH: LVQLQQSDAELVKPGASLKISCKVSGYTFTDHALHWMKQRPEQGLEWIGYIYPRDGSTKYNEKFKGKATLTADRSSSTAYMELNSLTSEDSAVYFCARGWDFAMDYWGQGTSVTVSS
VL: DIVLTQSPESLAVSLGQRATISCRASESVDNYGISFIHWYQQKPGQPPKLLIYRASNLKSGIPARFSGRGSRTDFTLTINPVETDDVATYYCQQINKDPLTFGAGTKLELKR
B4: rabbit derived IL-19 antibody R_3 (antibody, V domains shown)
VH: CQSLEESGGGLVEPEGSLTLTCKASGFSFSSSYWICWVRQAPGKGLEWIACTDTFSGDTYYASWAKGRFTISKTSSTTVTLRMTSLTDADTATYFCARDIFGTAVHISLWGPGTLVTVSS
VL: DVVMTQTPSSVEAAVGGTVTIKCQASQSIGSSLAWYQQKPGQRPKLLIYGASTLASGVPSRFKGSGSGTEFTLTISDLECADAATYYCQCHYHGSSYWDNSFGGGTEVVVK
B5: rabbit derived IL-19 Ab 39 (R_39) (antibody, V domains shown)
VH: QEQLKESGGGLVQPGGSLKLSCKASGFDLSSYGVSWVRQAPGKGLEWIGYIDPVFGSTYYANWVNGRFTISSDNAQNTLYLQLNSLTAADTATYFCARGSGYVYYGYTYDLWGPGTLVTVSS
VL: DIVMTQTPASVEAAVGGTVTIKCQASQSIYRYLSWYQQKPGQRPKLLIYGASNLASGVSSRFKGSGSGTEFTLTISDLECADAATYYCQSYYYSSSSGYGNVFGGGTEVVVKG
B6: rabbit derived IL-19 antibody R_4 (antibody, V domains shown)
VH: CQSVEESGGRLVTPGTPLTLTCTVSGIDLSIYAMGWVRQAPGKGLEYIGIIDTTGTAYYARWAKGRFTISKTSATVALKITSPTTEDTATYFCARDSGSLYYGSYALWGPGTLVTVSS
VL: DVVMTQTPSSVSEPVGGTVTIKCQASQSIYSYLSWYQQKPGQPPKLLIYEASKLASGVPSRFKGSGSGTQFTLTISGVECADAATYYCQQGYSSSNVDNTFGGGTEVVVT
B7: rabbit derived IL-19 Ab 1 (R_1) (antibody, V domains shown)
VH: QQLEESGGGLVQPEGSLTLTCTASGFSFSSSYWICWVRQAPGKGLEWLACIDTGVSGDTYYANWAEGRFTISKTSSTTVTLQMTSLTAADTATYFCARDIFGSAIDNSLWGPGTLVTVSS
VL: AIDMTQTPASVSEPVGGTVTIKCQASQSISSYLAWYQQKPGQPPKLLIYSASTLASGVPSRFRGSGSGREFTLTISDLECADAATYYCQCHYHGSSYWDNSFGGGTEVVVK
B8: rabbit derived IL-19 Ab 2 (R_2) (antibody, V domains shown)
VH: B7 VH with E66K
VL: B4 VL with S9A, Q27E, S31N, S32A, R43P, G50D, T53K, E70Q
B9: murine derived IL-19 Ab 3 (M_3) (antibody, mouse IgG1, kappa, V domains shown)
VH: QIQLVQSGPELKKPGETVKISCKASGYTFTTYGMSWVKQAPGKGLKWMVWINTYSGVPTYVDDFKGRFAFSLETSASTAYLQINNLKNEDTATYFCARRDEGFAYWGQGTLVTVSA
VL: DIKMTQSPSSMYASLGERVTITCKASQDINSYLSWFQQKPGKSPKTLIYRANRLVDGVPSRFSGSGSGQDYSLTISSLEYEDMGIYFCLQYDDFPYTFGGGTKLEIKR

What follows are binders tested against T1, recombinant human IL-19 (assay: BLI (Octet Red96), antibody on AMQ biosensor, IL-19 in solution, 25 C, 1:1 fit).
Protocol: Except as noted, all reagents and materials are from ForteBio (Freemont, Calif.). An AMQ biosensor is used to immobilize antibody of interest for analysis.
Binding data is processed using standard double-referencing and fit to a 1:1 binding model using Data Analysis v9.0 evaluation software, to determine the association rate (kₒₙ, M⁻¹ s⁻¹ units), dissociation rate (koff, s⁻¹ units), and Rₘₐₓ (nm units). The equilibrium dissociation constant (KD) was calculated from the relationship KD=koff/kₒₙ, and is in molar units.

Row | Binder | Kd [nM] | koff [s⁻¹] | kon [M⁻¹ s⁻¹]
1 | B1 | 0.0576 | 6.32e-05 | 1.1e+06
2 | B2 | 0.0521 | 3.58e-05 | 688000
3 | B3 | 2.9 | 0.000185 | 63700
4 | B4 | < 0.001 | < 1e-07 | 391000
5 | B5 | 170 | 0.0348 | 206000
6 | B6 | 8.52 | 0.0013 | 152000
7 | B7 | 0.311 | 1.04e-05 | 33300
8 | B8 | 0.103 | 4.42e-05 | 428000

These binders were tested against T1, recombinant human IL-19 (assay: BLI; immobilized antibody loaded with 100 nM human IL-19, then competitor human IL-20R beta Fc-fusion added; the response is that of the receptor-Fc step).
Excerpt: Binding between a ligand immobilized on the biosensor tip surface and an analyte in solution produces an increase in optical thickness at the biosensor tip, which results in a wavelength shift (expressed in nm).

Row | Binder | IL-20R beta Fc protein binding response (nm)
9 | B1 | -0.0075
10 | B2 | -0.0124
11 | B3 | 0.361
12 | B9 | 0.354
13 | B5 | -0.0421
